Source: paper PMC11969024, “Development of chemokine network inhibitors using combinatorial saturation mutagenesis” (Communications Biology, 2025)

B1: peptide HD2 (from tick evasin EVA4) / CCL4 (biotinylated, synthetic) (parent)
chain 1: EEDDYTAYAPLTCYFT
chain 2: APMGSDPPTACCFSYTARKLPRNFVVDYYETSSLCSQPAVVFQTKRSKQVCADPSESWVQEYVYDLELN
B2: peptide HD2 (from tick evasin EVA4) / CXCL11 (biotinylated, synthetic) (parent)
chain 1: EEDDYTAYAPLTCYFT
chain 2: FPMFKRGRCLCIGPGVKAVKVADIEKASIMYPSNNCDKIEVIITLKENKGQRCLNPKSKQARLIIKKVERKNF
B3: peptide HD2 (from tick evasin EVA4) / CXCL14 (biotinylated, synthetic) (parent)
chain 1: EEDDYTAYAPLTCYFT
chain 2: SKCKCSRKGPKIRYSDVKKLEMKPKYPHCEEKMVIITTKSVSRYRGQEHCLHPKLQSTKRFIKWYNAWNEKRRVYEE

Variants of: B1
Conditions: with CCL4 (biotinylated, synthetic); scale: log2
chain 1 A9C gave an enrichment of -9.66. Work on chain 1 A9D yielded an enrichment of -7.8. chain 1 C13H was tested, and the enrichment was -8.22. In the case of chain 1 C13R, the enrichment is reported as -10.1. Work on chain 1 D3C yielded an enrichment of -9.47. chain 1 D3K was tested, and the enrichment was -4.93. chain 1 D4C showed an enrichment of -8.81. In the case of chain 1 E1C, the enrichment is reported as -9.32. chain 1 E2C showed an enrichment of -9.58. With chain 1 P10H the enrichment was -7.52. Variant chain 1 P10I has an enrichment of -8.01. In the case of chain 1 P10K, the enrichment is reported as -6.53. With chain 1 P10M the enrichment was -8.07. With chain 1 P10N the enrichment was -7.59. In the case of chain 1 P10R, the enrichment is reported as -8.65. For chain 1 T6C, the enrichment was -10.7. In the case of chain 1 Y5A, the enrichment is reported as -6.64. chain 1 Y5G was tested, and the enrichment was -6.68. In the case of chain 1 Y5K, the enrichment is reported as -5.17. For chain 1 Y5N, the enrichment was -7.28. chain 1 Y5Q showed an enrichment of -4.93. chain 1 Y8C gave an enrichment of -9.25. chain 1 Y8G showed an enrichment of -8.28. chain 1 Y8K was tested, and the enrichment was -5.64. Work on chain 1 Y8M yielded an enrichment of -8.06. chain 1 Y8Q showed an enrichment of -5.93. chain 1 Y8R gave an enrichment of -7.75.

Variants of: B2
Conditions: with CXCL11 (biotinylated, synthetic); scale: log2
Work on chain 1 Y14R yielded an enrichment of -7.23. In the case of chain 1 D4C, the enrichment is reported as -6.38. chain 1 C13W gave an enrichment of -6.78. Variant chain 1 C13R has an enrichment of -7.69. Work on chain 1 P10C yielded an enrichment of -6.86. Variant chain 1 T16H has an enrichment of -4.21. Work on chain 1 Y5R yielded an enrichment of -4.19. chain 1 T16R gave an enrichment of -6.32. In the case of chain 1 E1K, the enrichment is reported as -3.21. For chain 1 E1C, the enrichment was -6.89. Variant chain 1 C13I has an enrichment of -5.31. With chain 1 D3K the enrichment was -2.5. chain 1 D3P was tested, and the enrichment was -4.65. chain 1 A7C was tested, and the enrichment was -6.98. chain 1 Y5V gave an enrichment of -6.41. For chain 1 L11G, the enrichment was -7.39. chain 1 D4A showed an enrichment of -5.22. Variant chain 1 Y14E has an enrichment of -5.9. chain 1 A9K was tested, and the enrichment was -3.76. With chain 1 P10F the enrichment was -6.55. For chain 1 Y5T, the enrichment was -4.8. chain 1 C13D gave an enrichment of -6.29. Work on chain 1 C13K yielded an enrichment of -6.26. Work on chain 1 Y8P yielded an enrichment of -5. Variant chain 1 Y8R has an enrichment of -5.32. Work on chain 1 Y14M yielded an enrichment of -6.11. chain 1 Y5G gave an enrichment of -4.25. chain 1 Y8C gave an enrichment of -6.82. With chain 1 Y5Q the enrichment was -2.5. For chain 1 Y14N, the enrichment was -4.04. chain 1 P10Q showed an enrichment of -3.53. chain 1 Y5C was tested, and the enrichment was -6.3. chain 1 Y14S gave an enrichment of -6.81. chain 1 P10R gave an enrichment of -6.22. In the case of chain 1 E2C, the enrichment is reported as -7.15. chain 1 Y8K was tested, and the enrichment was -3.21. For chain 1 D4T, the enrichment was -5.01. In the case of chain 1 Y5K, the enrichment is reported as -2.74. With chain 1 D4H the enrichment was -4.91. chain 1 E2Q gave an enrichment of -2.04. Variant chain 1 E1R has an enrichment of -5.11. For chain 1 Y5D, the enrichment was -4.19. In the case of chain 1 D3M, the enrichment is reported as -4.98. For chain 1 E2R, the enrichment was -4.27. Work on chain 1 C13Y yielded an enrichment of -5.88. chain 1 D4R showed an enrichment of -4.23. chain 1 Y14K gave an enrichment of -5.3. chain 1 D3H was tested, and the enrichment was -4.1. Variant chain 1 L11N has an enrichment of -5.58. chain 1 Y5E showed an enrichment of -0.621. Variant chain 1 E2P has an enrichment of -4.19. chain 1 D4N was tested, and the enrichment was -5.1. In the case of chain 1 L11Q, the enrichment is reported as -3.39. chain 1 Y5P was tested, and the enrichment was -3.87. In the case of chain 1 D3C, the enrichment is reported as -7.03. With chain 1 Y8Q the enrichment was -3.5. chain 1 C13G gave an enrichment of -7.57. Work on chain 1 Y14D yielded an enrichment of -4.67. chain 1 Y14Q gave an enrichment of -5.19. chain 1 D4G showed an enrichment of -3.36. chain 1 P10K gave an enrichment of -4.1. Variant chain 1 A9D has an enrichment of -5.37. In the case of chain 1 T12G, the enrichment is reported as -7.44. chain 1 Y14P was tested, and the enrichment was -5.99. chain 1 A9C gave an enrichment of -7.23. chain 1 Y5S showed an enrichment of -6.24. With chain 1 D3R the enrichment was -4.59. For chain 1 L11E, the enrichment was -5.3. chain 1 D3Q gave an enrichment of -2.12. For chain 1 F15N, the enrichment was -3.87. In the case of chain 1 D3E, the enrichment is reported as -1.84. chain 1 T12K gave an enrichment of -4.72. chain 1 Y5A showed an enrichment of -4.21. Variant chain 1 D4E has an enrichment of -3.08. chain 1 D3V gave an enrichment of -6.48. With chain 1 D4K the enrichment was -4.01. For chain 1 Y8E, the enrichment was -3.32. chain 1 P10Y gave an enrichment of -5.7. With chain 1 Y5M the enrichment was -4.78. For chain 1 D3A, the enrichment was -4.17. chain 1 Y14I showed an enrichment of -4.41.

Variants of: B3
Conditions: with CXCL14 (biotinylated, synthetic); scale: log2
chain 1 Y14K showed an enrichment of -6.43. In the case of chain 1 L11G, the enrichment is reported as -8.51. For chain 1 T16R, the enrichment was -7.45. chain 1 A7C was tested, and the enrichment was -8.1. In the case of chain 1 D4V, the enrichment is reported as -8.11. chain 1 Y5K showed an enrichment of -3.86. With chain 1 Y14N the enrichment was -5.16. chain 1 L11P was tested, and the enrichment was -6.36. Variant chain 1 L11E has an enrichment of -6.43. Variant chain 1 Y14F has an enrichment of -6.35. chain 1 C13Y showed an enrichment of -7.01. For chain 1 Y8C, the enrichment was -7.94. chain 1 D3L gave an enrichment of -8.51. For chain 1 D4Q, the enrichment was -4.74. Variant chain 1 Y5Q has an enrichment of -3.62. With chain 1 Y5V the enrichment was -7.53. Work on chain 1 E2R yielded an enrichment of -5.39. chain 1 Y5E was tested, and the enrichment was -1.74. Variant chain 1 Y8R has an enrichment of -6.45. For chain 1 Y5T, the enrichment was -5.93. In the case of chain 1 A9P, the enrichment is reported as -6.07. Variant chain 1 Y5G has an enrichment of -5.37. chain 1 D3M was tested, and the enrichment was -6.1. In the case of chain 1 Y14G, the enrichment is reported as -8.76. chain 1 E2C gave an enrichment of -8.27. chain 1 C13K showed an enrichment of -7.38. Variant chain 1 Y14S has an enrichment of -7.93. Variant chain 1 Y8Q has an enrichment of -4.62. For chain 1 Y8T, the enrichment was -6.74. chain 1 E2H showed an enrichment of -5.9. For chain 1 E1H, the enrichment was -6.24. chain 1 D3A showed an enrichment of -5.29. With chain 1 P10Y the enrichment was -6.83. For chain 1 Y5R, the enrichment was -5.31. For chain 1 E1K, the enrichment was -4.33. For chain 1 D4A, the enrichment was -6.34. Work on chain 1 Y14I yielded an enrichment of -5.53. With chain 1 E1R the enrichment was -6.24. Variant chain 1 Y8H has an enrichment of -5.83. chain 1 P10I was tested, and the enrichment was -6.7. In the case of chain 1 Y14R, the enrichment is reported as -8.35. In the case of chain 1 D3H, the enrichment is reported as -5.23. Variant chain 1 C13L has an enrichment of -9.57. chain 1 C13I was tested, and the enrichment was -6.44. Work on chain 1 F15K yielded an enrichment of -5.27. In the case of chain 1 F15T, the enrichment is reported as -5.59. With chain 1 E2A the enrichment was -5.18. Work on chain 1 C13Q yielded an enrichment of -7.64. In the case of chain 1 P10R, the enrichment is reported as -7.34. Variant chain 1 C13M has an enrichment of -7.78. Variant chain 1 Y8E has an enrichment of -4.45. With chain 1 P10C the enrichment was -7.98. For chain 1 D3V, the enrichment was -7.6. chain 1 Y8A was tested, and the enrichment was -7.04. chain 1 Y14T showed an enrichment of -7.2. Work on chain 1 Y5S yielded an enrichment of -7.36. chain 1 Y14P was tested, and the enrichment was -7.11. chain 1 Y14M was tested, and the enrichment was -7.23. In the case of chain 1 C13F, the enrichment is reported as -6.89.
